The values below come from patent US20070111265A1, “Ligands for mineralocorticoid receptor (MR) and methods for screening for or designing MR ligands” (Van Andel Research Institute, priority 2005, published 2007).

For assay [1], the target named is T1, VP16-MR LBD (Homo sapiens, UniProt P08235).
T1 construct: expressed in transfected cells; host or cells: Cos-7
T1 sequence (P08235 727-984): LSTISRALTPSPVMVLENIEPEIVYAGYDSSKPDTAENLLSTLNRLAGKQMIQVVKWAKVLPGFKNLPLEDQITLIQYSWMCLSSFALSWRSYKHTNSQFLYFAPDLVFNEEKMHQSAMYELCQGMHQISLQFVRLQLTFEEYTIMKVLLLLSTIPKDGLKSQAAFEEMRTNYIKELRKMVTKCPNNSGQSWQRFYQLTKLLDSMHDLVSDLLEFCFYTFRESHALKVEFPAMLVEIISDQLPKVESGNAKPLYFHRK
Description: Mammalian two hybrid assay, pG5Luc reporter. Conditions: 10 nM corticosterone. It counts as cell-based. As for the experimental part:
(C) Mammalian two-hybrid interaction of SRC1 with MR. GAL4-DBD were fused with the SRC1-4 motif (SRC1-4, residues 1240-1441) and two mutated forms of SRC1-4 [SRC1-4(E1441K), corresponding to E+7K mutation of the SRC1-4 motif, and SRC1-M4 (L1438A/L1439A), corresponding to the LXXAA mutation of the SRC1-4 motif], respectively. VP16 were fused with MR LBD and MR LBD (K782E). The cells were cotransfected with GAL4 and VP16 fusion constructs and pG5Luc reporter. The cells were treated with 10 nM corticosterone.
Cos-7 cells were maintained in DMEM containing 10% fetal bovine serum (FBS) and were transiently transfected using Lipofectamine 2000 (Invitrogen). 24-Well plates were plated 24 hr prior to transfection (5×10^4 cells per well). Cells were transfected in Opti-MEM with 400 ng of MMTV-Luc reporter plasmid and 400 ng of receptor expression vector (pRS vector) encoding full-length GR and MR respectively (ATCC). […] For cotransfection of MR and SRC1, 50 ng Gal4-MR LBD was transfected with 200 ng pG5Luc and various amounts of PCR3.1-SRC1 as indicated in the figure legend. 18 hours after transfection, steroids were added in DMEM supplemented with 5% Charcoal/Dextran treated FBS (Hyclone). Cells were harvested 24 hours later for luciferase assays. Luciferase data were normalized to Renilla activity as an internal control. […]

The target of assay [2] is T2, purified MR/corticosterone complex (MR LBD C808S) (Homo sapiens, UniProt P08235, C808S).
T2 construct: made in house; host or cells: E. coli BL21DE3 (pET24a)
T2 sequence (P08235 727-984 C808S): T1 sequence (P08235 727-984) with C82S
Description: AlphaScreen peptide competition (IC50) of coactivator LXXLL motifs. It counts as binding. The text has this:
(D) Binding affinity of various coactivator LXXLL motifs to the purified MR/corticosterone complex as determined by IC50 values from peptide competition experiments using AlphaScreen assays. The numbering scheme of the LXXLL motifs is shown on the top of the sequences.
SRC2-(2+3) and […] SRC2 protein fragments containing 2nd and 3rd LXXLL motifs. The 2nd LXXLL motif of SRC2 was mutated to LXXAA in SRC2-(M2+3).
(G) Binding affinity of PGC1α-(1+2), PGC1α-1 and PGC1α-2 to the purified MR/corticosterone complex as determined by IC50 values from peptide competition experiments.
The fusion protein contains a His6-TAG ([…]) at the N terminus and a thrombin protease site between GST and the MR LBD. BL21DE3 cells transformed with this expression plasmid were grown in LB broth at 16° C. to an OD600 of ˜1 and induced with 0.1 mM IPTG and 50 μM corticosterone. Cells were harvested, resuspended in 400 ml extract buffer (50 mM Tris[pH8.0], 150 mM NaCl, 2 M Urea, 10% glycerol) per 24 liters of cells, and passed three times through a French Press with pressure set at […]. […] Both human PGC1α (1+2) (residues 1-220) and SRC2-(2+3) (residues 563-763) were expressed as a 6×His-GST fusion protein from the expression vector pET24a (Novagen). […]
The binding of various peptide motifs to MR was determined by AlphaScreen assays using a hexahistidine detection kit from Perkin-Elmer. […]

Positions count from the first letter of the chain named. In names and notes the source's numbering stands.

B1: SRC1-4M: GAL4-DBD SRC1-4 with LXXAA mutation of the SRC1-4 motif (protein)
chain: QGEANFAPSLSPGSSMVPMPIPPPQSSLLQQTPPASGYQSPDMKAWQQGAIGNNNVFSQAVQNQPTPAQPGVYNNMSITVSMAGGNTNVQNMNPMMAQMQMSSLQMPGMNTVCPEQINDPALRHTGLYCNQLSSTDLLKTEADGTQQVQQVQVFADVQCTVNLVGGDPYLNQPGPLGTQKPTSGPQTPQAQQKSLLQQAATE
modifications: left off: large carriers; small tags and cut ends
notes: GAL4-DBD SRC1-4 with LXXAA mutation of the SRC1-4 motif
Consider B1, for which, in assay [1], the “interaction with MR LBD” value is on record as “abolished the interaction”.

B2: SRC1-4 E1441K: GAL4-DBD SRC1-4 with E+7K mutation of the SRC1-4 motif (protein)
chain: B1 chain with A199L, A200L, E202K
modifications: left off: large carriers; small tags and cut ends
notes: GAL4-DBD SRC1-4 with E+7K mutation of the SRC1-4 motif
For B2, the “interaction with MR LBD” value in assay [1] is given as “failed to interact”.

B3: PGC1α-(1+2): purified human PGC1α fragment (residues 1-220) containing both LXXLL motifs (protein)
chain: MAWDMCNQDSESVWSDIECAALVGEDQPLCPDLPELDLSELDVNDLDTDSFLGGLKWCSDQSEIISNQYNNEPSNIFEKIDEENEANLLAVLTETLDSLPVDEDGLPSFDALTDGDVTTDNEASPSSMPDGTPPPQEAEEPSLLKKLLLAPANTQLSYNECSGLSTQNHANHNHRIRTNPAIVKTENSWSNKAKSICQQQKPQRRPCSELLKYLTTNDDP
modifications: left off: small tags and cut ends; a dimerising Fc or GST
notes: purified human PGC1α fragment (residues 1-220) containing both LXXLL motifs
On to B3, for which the “binding affinity to MR” value in assay [2] (compared with single motifs, FIG. 3G) is on record as “much higher affinity than either motif alone”.

B4: SRC2-(M2+3): SRC2 fragment in which the 2nd LXXLL motif was mutated to LXXAA (protein)
chain: QNSPVNMNPPPLSKMGSLDSKDCFGLYGEPSEGTTGQAESSCHPGEQKETNDPNLPPAVSSERADGQSRLHDSKGQTKLLQLLTTKSDQMEPSPLASSLSDTNKDSTGSLPGSGSTHGTSLKEKHKILHRAAQDSSSPVDLAKLTAEATGKDLSQESSSTAPGSEVTIKQEPVSPKKKENALLRYLLDKDDTKDIGLPEIT
modifications: left off: small tags and cut ends; a dimerising Fc or GST
notes: SRC2 fragment in which the 2nd LXXLL motif was mutated to LXXAA
Consider B4, for which the “decrease of binding affinity versus SRC2-(2+3)” value in assay [2] (second LXXLL motif mutated) is “more than 10 fold”.
